US8192734B2, “Compositions and methods for bone strengthening” (Cornell University, priority 2007, dated 2012)

Columns and labels:
[1] = system: pigs fed P-adequate corn-soybean meal basal diet; assay: Expt 1: metatarsal breaking strength, three-point bending test; type: in vivo, pig; details: BD + phytase 2,000 U/kg, 6 wk
Description: Based on results of the preliminary trials, Experiment 1 was conducted with 24 gilts (6-wk old, 8.6±0.1 kg body weight) to test the possible benefit of phytase to metatarsal breaking load of pigs fed the corn-soybean meal basal diet (BD, Table 1). The BD contained 0.33% available P and adequate concentrations of all other required nutrients (24). The selected pigs were divided into two groups (n=12), and were fed BD or BD+phytase at 2,000 U/kg for 6 wk.
Third and 4th metatarsals in both experiments and femur (right leg) in Experiment 2 were prepared by manually removing surrounding skin, muscle and other tissues. Bones were stored in closed plastic bags at 4° C. until strength analysis. Maximal breaking load was measured using an Instron 4500 Machine (Canton, Mass.) at room temperature (23° C.) by subjecting each bone to a three-point bending test^(28). During mechanical tests, force was applied to the center of the bone held by supports 2.0 cm apart for metatarsals and 3.3 cm apart for femur. The crosshead speed was set at 50 mm/min and the sample rate was 10 points/s. Final strength was determined from load-displacement curves indicating the maximum loads. The metatarsal breaking strength was expressed as the mean strength of four bones from both left and right feet of pigs in Experiment 1, and as the mean of the two bones from the right foot of pigs in Experiment 2. […]

[2] = system: weanling pigs fed high P diet; assay: Examples 4-8: femoral and metacarpal mechanical properties, dimensions, cortical thickness; type: in vivo, pig; details: 8 wk
Description: As in Examples 1-3, the animal protocol was approved by Cornell Animal Care and Use Committee. An 8-week feeding trial was conducted at Cornell University Swine Research Farm. […] Group 2 were fed a corn-soy basal diet (BD)+0.25% inorganic phosphorus (iP, dicalcium phosphate). Group 2 were fed BD+0.35% iP. […] The BD (Table 7) contained adequate levels of all nutrients except for P^(63), and 0.25% iP is the supplementation level recommended by NRC^(24) to meet the P needs of this age of pigs. […] Pigs were housed in an environmentally-controlled barn (20-25° C.; 12-light: 12-dark cycle), and given free access to feed and water.
Growth performance of pigs was monitored at two week intervals. Blood samples of all individual pigs (fasted overnight for 8 h) were collected at initial (week 0) and then bi-weekly from the anterior vena cava using 5-mL heparin syringes to assay for concentrations of plasma iP^(73), Ca and Sr^(63). At the end of experiment, 5 pigs (2 male and 3 female) from each group were killed by electrical stunning and exsanguination. Both left and front right legs from each animal were removed from the body.
After the skin and major muscles were removed, two left legs were subjected to X-ray radiography using a Faxitron machine (Model 43855A; Hewlett Packard, McMinnville, Oreg., USA). Bone radiographs of femur and metacarpals were quantified by the kodac software. The software counted the total number of pixels. Thereafter, the 3rd and 4th metacarpals and femurs were collected to measure length, weight, height, and width after removing the remaining muscle and connective tissue. After the X-ray analysis, the two left legs were used for bone mechanical and mineral testing. Bone mechanical properties were determined by a three-point bending test (ASAE Standard S459 1992) using an Instron 4500 Machine Universal Testing Instrument (Model 1122, Instron, Canton, Mass.) with Instron Series IX Automated Materials Testing System Software (version 4.05). During testing, force was applied to the center of the bone held by supports 2.0 cm apart for metacarpals and 3.3 cm apart for femurs. The crosshead speed was set at 50 mm/min and the sampling rate was at 10 points/sec. The extrinsic parameters (stiffness/slope, maximum load, energy to break, maximum displacement) were derived from the force-displacement curve. Bone breaking strength was calculated with the adjustment of bone weight, and the average strength of the 3rd and 4th metacarpal was used as the metacarpal strength for each pig.
After the above mechanical tests, midshaft sections of both femur and metacarpus were cut and washed with de-ionized water. The cortical thickness of both bones was measured by slide caliper in the midshaft. Cortical and cancellous bones were separated for total ash and mineral analysis. A 3-cm long and 3-mm thick midshaft of femur and 1-cm long and 1.5-mm thick midshaft of metacarpus were used for cortical ash analysis. For cancellous bone, sponge-like bone from 3-cm below the growth plate of femur and 1.5-cm below the growth plate of metacarpus were collected. For ash analysis, bones were oven-dried at 110° C. for 24 h, and incinerated in a muffle furnace at 550° C. for 96 h. Concentrations of individual elements in the ash were measured using inductively coupled argon plasma spectrophotometer (ICAP 61E Trace Analyzer, Thermo Jarell Ash corporation, Franklin, Mass.)^(63), and were expressed on ash basis.

[3] = 0.35% iP + Sr 50 mg/kg + phytase 3,400 U/kg, P<0.05

B1: Phytase: Escherichia coli AppA2 phytase (OptiPhos, JBS United, Inc.), added to diets at feed mixing; AppA2 is SEQ ID NO: 2 (protein, listed as Escherichia coli)
chain: MKAILIPFLSLLIPLTPQSAFAQSEPELKLESVVIVSRHGVRAPTKATQLMQDVTPDAWPTWPVKLGWLTPRGGELIAYLGHYQRQRLVADGLLAKKGCPQPGQVAIIADVDERTRKTGEAFAAGLAPDCAITVHTQADTSSPDPLFNPLKTGVCQLDNANVTDAILSRAGGSIADFTGHRQTAFRELERVLNFSQLNLCLNREKQDESCSLTQALPSELKVSADNVSLTGAVSLASMLTEIFLLQQAQGMPEPGWGRITDSHQWNTLLSLHNAQFYLLQRTPEVARSRATPLLDLIMAALTPHPPQKQAYGVTLPTSVLFIAGHDTNLANLGGALELNWTLPGQPDNTPPGGELVFERWRRLSDNSQWIQVSLVFQTLQQMRDKTPLSLNTPPGEVKLTLAGCEERNAQGMCSLAGFTQIVNEARIPACSL
breaking strength of metatarsals [1]: 112.0 ± 3.9 kg | greater breaking strength of metatarsals vs BD ([1]; P<0.02): 12% | greater cortical bone thickness of femur vs 0.35% iP [2, 3]: 32% | greater cortical bone thickness of metacarpus vs 0.35% iP [2, 3]: 7% | greater energy to break of femur vs 0.35% iP [2, 3]: 26% | greater energy to break of metacarpus vs 0.35% iP [2, 3]: 14% | greater maximal load of femur vs 0.35% iP [2, 3]: 38% | greater maximal load of metacarpus vs 0.35% iP [2, 3]: 20% | greater stiffness of femur vs 0.35% iP [2, 3]: 12% | greater stiffness of metacarpus vs 0.35% iP [2, 3]: 8% | femoral Cross-sectional area ([2]; 0.35% iP + phytase 3400 U, n=5): 199.7 mm^2 | femoral Height ([2]; 0.35% iP + phytase 3400 U, n=5): 21.8 mm | femoral Length ([2]; 0.35% iP + phytase 3400 U, n=5): 143.7 mm | femoral Max. Displacement ([2]; 0.35% iP + phytase 3400 U, n=5): 4.9 mm | femoral Weight ([2]; 0.35% iP + phytase 3400 U, n=5): 202.2 g | femoral Width ([2]; 0.35% iP + phytase 3400 U, n=5): 23.3 mm | metacarpal Height ([2]; 0.35% iP + phytase 3400 U, n=5): 14.8 mm | metacarpal Length ([2]; 0.35% iP + phytase 3400 U, n=5): 60.5 mm | metacarpal Max. Displacement ([2]; 0.35% iP + phytase 3400 U, n=5): 8.9 mm | metacarpal Weight ([2]; 0.35% iP + phytase 3400 U, n=5): 19.2 g | metacarpal Width ([2]; 0.35% iP + phytase 3400 U, n=5): 15.0 mm
